Experimental findings from patent US6670189B2, “Fumonisin detoxification compositions and methods” (priority 1994, dated 2003) are described below.

Data set [1] in a line: Hydrolysis of fumonisin B1 by commercial esterases and hydrolases. In kind it is biochemical. Further details: key: − = no hydrolysis; ± = trace amount of hydrolysis; + = incomplete hydrolysis; ++ = incomplete hydrolysis; +++ = complete hydrolysis. The conditions noted are these: assay pH 5.2; overnight at 37° C. with 1 mg/ml fumonisin. As to the method:
(§1) Analytical thin-layer chromatography was carried out on 100% silanized C18 silica plates (Sigma #T-7020; 10×10 cm; 0.1 mm thick) by a modification of the published method of Rottinghaus (Rottinghaus, G. E., Coatney, C. E., and Minor, H. C., A rapid, sensitive thin layer chromatography procedure for the detection of fumonisin b-1 and b-2, J Vet Diagn Invest, 4, 326 (1992), and herein incorporated by reference).
(§2) Sample lanes were pre-wet with methanol to facilitate sample application. After application of from 0.1 to 2 μl of aqueous sample, the plates were air-dried and developed in MeOH:4% KCl (3:2) or MeOH:0.2 M KOH (3:2) and then sprayed successively with 0.1 M sodium borate (pH 9.5) and fluorescamine (0.4 mg/ml in acetonitrile). Plates were air-dried and viewed under long wave UV.
The fumonisin esterase isolated from E. spinifera and R. atrovirens was compared with other known esterases from various sources as supplied by commercial vendors.

For the next data set, the system named is FB1 Hydrolase activity. Nature of the data set: Effect of various treatments on modification of FB1 by E. spinifera esterase (culture filtrates). In kind it is biochemical, Exophiala spinifera. Set-up: key: − = no hydrolysis; ± = trace amount of hydrolysis; + = incomplete hydrolysis; ++ = incomplete hydrolysis; +++ = complete hydrolysis. The conditions noted are these: treatment 0.01 mg/ml, 16 hr, 37° C., pH 5.2; then incubated with FB1 overnight at 37° C. As to the method: as §1, §2
The esterase isolated from E. spinifera was then subjected to other treatments, including proteases, to determine whether and how the enzyme would function in various environments.

B1: Fumonisin esterase (protein)
chain: APTVKIDAGMVVGTTTTVPGTTATVSEFLGVPFAASPTRFAPPTRPVPWSTPLQATAYGPACPQQFNYPEELREITMAWFNTPPPSAGESEDCLNLNIYVPGTENTNKAVMVWIYGGALEYGWNSFHLYDGASFAANQDVIVVTINYRTNILGFPAAPQLPITQRNLGFLDQRFALDWVQRNIAAFGGDPRKVTIFGQSAGGRSVDVLLTSMPHNPPFRAAIMESGVANYNFPKGDLSEPWNTTVQALNCTTSIDILSCMRRVDLATLMNTIEQLGLGFEYTLDNVTVVYRSETARTTGDIARVPVLVGTVANDGLLFVLGENDTQAYLEEAIPNQPDLYQTLLGAYPIGSPGIGSPQDQIAAIETEVRFQCPSAIVAQDSRNRGIPSWRYYYNATFENLELFPGSEVYHSSEVGMVFGTYPVASATALEAQTSKYMQGAWAAFAKNPMNGPGWKQVPNVAALGSPGKAIQVDVSPATIDQRCALYTHYYTELGTIAPRTF
In the case of B1, the FB1 hydrolysis result in data set [1] is “+++”.

B2: Protease K: protease used to treat the culture filtrate (protein, UniProt P06873 106-384, looked up)
Proteinase K: AAQTNAPWGLARISSTSPGTSTYYYDESAGQGSCVYVIDTGIEASHPEFEGRAQMVKTYYYSSRDGNGHGTHCAGTVGSRTYGVAKKTQLFGVKVLDDNGSGQYSTIIAGMDFVASDKNNRNCPKGVVASLSLGGGYSSSVNSAAARLQSSGVMVAVAAGNNNADARNYSPASEPSVCTVGASDRYDRRSSFSNYGSVLDIFGPGTSILSTWIGGSTRSISGTSMATPHVAGLAAYLMTLGKTTAASACRYIADTANKGDLSNIPFGTVNLLAYNNYQA
Take B2: the “FB1 Hydrolase activity” value with FB1 Hydrolase activity was “+”.
